Results as given in patent US20100279930A1 (published 2010).
Read-outs that look alike come from different tables or passages of the source. No end group written: not given here.

Legend:
[1] = biological target: T1, human Y4 receptor (human, UniProt P50391 1-375); assay: 125I-PP displacement
[2] = biological target: T1, human Y4 receptor; assay: 125I-PP displacement; remark: listed apart in the source

T1 sequence (P50391 whole entry): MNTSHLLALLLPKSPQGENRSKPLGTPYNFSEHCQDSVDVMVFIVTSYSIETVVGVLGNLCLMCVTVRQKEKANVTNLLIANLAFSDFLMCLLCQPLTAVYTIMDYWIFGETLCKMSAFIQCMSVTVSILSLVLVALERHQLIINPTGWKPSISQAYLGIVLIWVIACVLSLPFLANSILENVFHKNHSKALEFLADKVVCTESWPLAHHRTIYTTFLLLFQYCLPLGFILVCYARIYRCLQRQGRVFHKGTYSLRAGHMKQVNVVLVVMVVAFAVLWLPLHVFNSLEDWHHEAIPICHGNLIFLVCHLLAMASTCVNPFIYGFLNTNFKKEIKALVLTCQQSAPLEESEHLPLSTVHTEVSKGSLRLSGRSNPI

Row | Binder | IC50 [1] | IC50 [2]
1 | PLEPFYPGDDATPQQMAQYAAALRRYINMLTRPRY [4055287] | 0.5 nM | 
2 | APLEPFYPGDNATPEEIVKYYSALRRYINMLTRPRY [6844] |  | 0.19 nM
3 | APLEPFYPGDNATPEELVKYYSALRRYINMLTRPRY [6843] |  | 0.17 nM
4 | PAPLEPKYPGDDATPQQMARYAAELRRYINKLTRPRY [7255] | 0.091 nM | 
5 | PAPLEPEYPGDNATPEQMARYAAELRRYINKLTRPRY [7254] | 0.109 nM | 
6 | PAPLEPVYPGDDATPQQMAQYAAELRRYINMLTRPRY [6865] |  | 0.29 nM
7 | PAPLEPTYPGDDATPQQMARYAAELRRYINKLTRPRY [7258] | 0.068 nM | 
8 | PAPLEPTYPGDNATPEQMAKYAAELRRYINKLTRPRY [7252] | 0.082 nM | 
9 | PAPLEPEYPGDDATPQQMARYAAELRRYINILTRPRY [7256] | 0.132 nM | 
10 | PAPLEPEYPGDDATPQQMARYAAELRRYINFLTRPRY [7257] | 0.142 nM | 
11 | HAPLEPVYPGDNATPEELNQYYASLRRYINMLTRPRY [6857] |  | 0.22 nM
12 | APLEPMYPGDYATPEQMAQYETQLRRYINTLTRPRY [6803] |  | 0.2 nM
13 | PAPLEPTYPGDNATPEQMAKYAAALRRYINMLTRPRY [7250] | 0.099 nM | 
14 | KPLEPVYPGDDATPQQMAQYAAELRRYINMLTRPRY [4055197] | 0.62 nM | 
15 | APLEPVYPGDDATPQQMAQYAAELRRYINLLTRPRY [6812] |  | 0.24 nM
16 | APLEPFYPGDDATPQQMAQYAAELRRYINMLTRPRY [6817] |  | 0.2 nM
17 | APLEPVYPGDDATPQQMAQYAAEMRRYINMLTRPRY [6667] |  | 0.18 nM
18 | KPLEPVYPGDDATPQQMAQYAAELRRYINMLTRPRY [4055196] | 0.33 nM | 
19 | APLEPVYPGDNATPEELNRYYASLRKYINMLTRPRY [6673] |  | 0.16 nM
20 | APLEPVYPGDNATPEELVKYFVGLRRYINMLTRPRY [6850] |  | 0.17 nM

Row | Binder | IC50 [1] | IC50 [2]
21 | APLEPVYPGDNATPEQRAQYAADLRRYINTLTRPRY [6807] |  | 0.19 nM
22 | APLEPEYPGDDATPEQMAEYAADLRRYINMLTRPRY [4055407] | 0.29 nM | 
23 | APLEPVYPGDNATPEQMAQYAADLRRYINMLTRPQY [4054977] | 1.8 nM | 
24 | APLEPVYPGDNATPEQMAQYAADLRRYIDMLTRPRY [4055403] | 0.5 nM | 
25 | APLEPVYPGDNATPEQMAQYAADLRRYINMCTRPRY [6835] |  | 0.26 nM
26 | APLEPVYPGDNATPEQMAQYAADLRRYINMLTRPHRY (ends and bridges not checked) [compound of SEQ ID NO:62 (code 6659)] |  | 0.17 nM
27 | APLEPVYPGDDATPQQMAQYYAELRHYLNLVTRPRY [4055248] | 0.38 nM | 
28 | AAPLEPVYPGDNATPEELVKYYSALRRYINMLTRPRY [6863] |  | 0.16 nM
29 | AAPLEPVYPGDNATPEELNHYYSALRRYINMLTRPRY [6840] |  | 0.17 nM
30 | APLEPFYPGDNATPEQMAQYAAALRKYINMLTRPRY [6809] |  | 0.21 nM
31 | APLEPVYPGDNATPEQMNRYYASLRHYLNLVTRPRY [4054985] | 0.17 nM | 
32 | YYYAPLEPVYPGDYATPEQRAQYETQLRRYINTLTRPRY [6806] |  | 0.19 nM
33 | AAPLEPVYPGDNATPEQMAQYAADLRKYINMLTRPRY [6668] |  | 0.28 nM
34 | AAPLEPFYPGDNATPEQMAQYAAALRRYINLLTRPRY [6811] |  | 0.2 nM
35 | AAPLEPVYPGDNATPEQMAQYAADLRRYINTLTRPRY [6658] |  | 0.16 nM
36 | AAPLEPVYPGDDATPQQMAQYAAELRKYINMLTRPRY [6814] |  | 0.22 nM
37 | AAPLEPVYPGDNATPEQLAQYAADLRRYINLLTRPRY [6657] |  | 0.25 nM
38 | CAPLEPVYPGDNATPEQMAQYAADLRRYINMLTRPRY [6836] |  | 0.69 nM
39 | AAPLEPVYPGDNATPEQMAQYAADLRKYINLLTRPRY [6669] |  | 0.32 nM

Now from value to binder:

Row | IC50 [1] | IC50 [2] | Binder
40 |  | 0.11 nM | PLEPVYPGDDATPQQMAQYAAALRRYINMLTRPRY [6666]
41 |  | 0.12 nM | APLEPVYPGDNATPEELVKYFSALRRYINMLTRPRY [6848]
42 |  | 0.12 nM | APLEPVYPGDNATPEELNHYYSALRRYINMLTRPRY [6839]
43 |  | 0.15 nM | APLEPFYPGDNATPEELVKYYASLRRYINMLTRPRY [6846]
44 |  | 0.15 nM | AAPLEPFYPGDDATPQQMAQYAAELRRYINMLTRPRY [6818]
45 |  | 0.11 nM | AAPLEPVYPGDNATPEELNRYYASLRRYINMLTRPRY [6671]
46 |  | 0.12 nM | AAPLEPFYPGDDATPQQMAQYAAALRRYINMLTRPRY [6665]
47 |  | 0.13 nM | APLEPVYPGDNATPEQMAQYAAELRRYINMLTRPRY [6823]
48 |  | 0.13 nM | APLEPVYPGDDATPQQMARYAAELRRYINMLTRPRY [6815]
49 |  | 0.07 nM | APLEPEYPGDDATPQQMARYAAELRRYINMLTRPRY [6827]
50 |  | 0.14 nM | APLEPEYPGDDATPQQMAQYAAELRRYINMLTRPRY [6819]
51 |  | 0.15 nM | APLEPFYPGDDATPQQMARYAAELRRYINMLTRPRY [6816]
52 |  | 0.089 nM | KPLEPVYPGDNATPEELNRYYASLRRYINMLTRPRY [compound of SEQ ID NO:73 (code 6675)]
53 |  | 0.15 nM | APLEPVYPGDNATPEELVKYFIELRRYINMLTRPRY [6849]
54 |  | 0.12 nM | APLEPFYPGDNATPEQMARYAAELRRYINMLTRPRY [6828]
55 |  | 0.1 nM | PAPLEPVYPGDNATPEELVKYYSALRRYINMLTRPRY [6861]
56 |  | 0.11 nM | AAPLEPVYPGDNATPEELVKYYSALRRYINMLTRPRY [6862]
57 |  | 0.11 nM | HAPLEPVYPGDNATPEELVKYYSALRRYINMLTRPRY [6860]
58 |  | 0.11 nM | APLEPFYPGDNATPEQMAQYAAALRRYINLLTRPRY [6810]
59 |  | 0.15 nM | YYYAPLEPVYPGDNATPEQRAQYAADLRRYINTLTRPRY [6808]
